Experiment [1] concerns the target T1, human interleukin 12 (human, UniProt P29459 23-219; P29460 23-328).
T1 sequence (looked up) 1: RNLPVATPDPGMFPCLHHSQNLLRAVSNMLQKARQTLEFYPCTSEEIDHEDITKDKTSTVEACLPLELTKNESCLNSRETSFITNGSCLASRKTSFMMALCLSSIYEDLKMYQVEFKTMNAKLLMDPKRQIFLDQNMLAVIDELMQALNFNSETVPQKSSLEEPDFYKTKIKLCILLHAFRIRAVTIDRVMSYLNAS
T1 sequence (looked up) 2: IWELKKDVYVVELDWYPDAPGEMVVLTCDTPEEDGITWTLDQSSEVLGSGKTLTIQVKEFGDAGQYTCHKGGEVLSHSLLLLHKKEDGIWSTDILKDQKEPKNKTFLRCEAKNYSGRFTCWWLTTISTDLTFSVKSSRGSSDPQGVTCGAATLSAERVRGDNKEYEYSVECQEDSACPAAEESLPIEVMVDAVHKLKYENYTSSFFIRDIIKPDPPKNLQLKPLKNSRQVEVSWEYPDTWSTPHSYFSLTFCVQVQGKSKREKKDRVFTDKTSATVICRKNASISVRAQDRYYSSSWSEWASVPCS
The experiment is described as follows: cell-based or functional assay.

For experiment [2], the target named is T1, human interleukin 12. The experiment is described as follows: SPR (BIAcore). In general terms: Surface plasmon resonance follows binding to a sensor surface in real time, without labels.
For experiment [3], the target named is T1, human interleukin 12. The experiment is described as follows: RB assay (IL-12 receptor binding).
The target of experiment [4] is T2, human interleukin 12 (recombinant human IL-12, p70 heterodimer) (human, UniProt P29459 23-219; P29460 23-328).
T2 sequence (looked up) 1: T1 sequence (looked up) 1
T2 sequence (looked up) 2: T1 sequence (looked up) 2
The experiment is described as follows: cell-based or functional assay.

Experiment [5] addresses T2, human interleukin 12 (recombinant human …). The experiment is described as follows: SPR (BIAcore), off-rate from human IL-12.
Experiment [6] addresses T3, human interleukin 12 (p70 heterodimer of p35 and p40) (human, UniProt P29459 23-219; P29460 23-328).
T3 construct: Recombinant human IL-12; also called hIL-12; IL-12
T3 sequence (looked up) 1: T1 sequence (looked up) 1
T3 sequence (looked up) 2: T1 sequence (looked up) 2
Nature of the experiment: SPR (BIAcore), off-rate.

Usually koff stands for the rate constant with which the complex falls apart. For orientation: IC50 means the concentration that gives 50% inhibition.

Changes are numbered by the printed parent chain. Names may count otherwise.

B1: Joe9 wt IgG1 (antibody, V domains shown)
VH: not shown
VL: SYVLTQPPSVSGTPGQRVTISCSGGRSNIGSNTVKWYQQLPGTAPKLLIYGNDQRPSGVPDRFSGSKSGTSASLAITGVQAEDEADYYCQSYDSSLRG
Consider B1, for which the “PHA assay IC50” value in the experiment with human interleukin 12 [1] turned out to be 500 nM.

B2: 136-14 (antibody, V domains shown)
VH: QVQLVQSGGGVVQPGRSLRLSCAASGFTFSSYGMHWVRQAPGKGLEWVAFIRYDGSNKYYADSVKGRFTISRDNSKNTLYLQMKSLRAEDTAVYYCTTHGSHDNWGQGTMVTVSS
VL: SYVLTQPPSVSGTPGQRVTISCSGGRSNIGSNTVKWYQQLPGTAPKLLIYGNDQRPSGVPDRFSGSKSGTSASLAITGVQAEDEADYYCQTYDRGFTGSRVFGTGTKVTVL
Turning to B2, in the experiment with human interleukin 12 [1], the “PHA assay IC50” value was 100 nM. In the experiment with human interleukin 12 [2], the koff was found to be 0.0011 s⁻¹. Also, the IC50 with human interleukin 12 [3] was 0.3 nM.

B3: 136-15M1 (antibody, V domains shown)
VH: B2 VH with T97A, T98K
VL: SYVLTQPPSVSGTPGQRVTISCSGGRSNIGSNTVKWYQQLPGTAPKLLIYGNDQRPSGVPDRFSGSKSGTSASLAITGVQAEDEADYYCQSYDRGFTGSRVFGTGTKVTVLG
In the experiment with human interleukin 12 [3], B3 yielded an IC50 of 0.4 nM.

B4: 73-B1 (antibody, V domains shown)
VH: B2 VH with H99S, H102Y, N104Y
VL: B3 VL with Q90H, R94S, G95D
On to B4, for which, in the experiment with human interleukin 12 [2], the off-rate (koff) was 0.00325 s⁻¹. The molecule further registered an IC50 with human interleukin 12 [3] greater than 10 nM.

B5: 136-17 (antibody, V domains shown)
VH: B2 VH
VL: B2 VL with T91S, R94W, G95N
On to B5, for which the “PHA assay IC50” value with human interleukin 12 [1] is 7 nM. This molecule also gave an off-rate (koff) with human interleukin 12 [2] of 2.9e-05 s⁻¹. Moreover, the IC50 in the experiment with human interleukin 12 [3] was found to be 2 nM.

B6: 136-10 (antibody, V domains shown)
VH: B2 VH with N104D
VL: B2 VL with T91S
In the case of B6, the koff in the experiment with human interleukin 12 [2] is 0.0014 s⁻¹. The same molecule registered an IC50 with human interleukin 12 [3] of 2 nM.

B7: 73-B6 (antibody, V domains shown)
VH: B2 VH with H99S, H102Y, N104Y
VL: B3 VL with Q90H, R94N, G95R
As to B7, the koff with human interleukin 12 [2] was 0.00251 s⁻¹. The IC50 with human interleukin 12 [3] is greater than 10 nM.

B8: 136-21 (antibody, V domains shown)
VH: B2 VH
VL: B2 VL with T91S, R94N
Regarding B8, in the experiment with human interleukin 12 [2], the koff was found to be 0.00042 s⁻¹. The same molecule came in with an IC50 with human interleukin 12 [3] of 2 nM.

B9: Y61-L50Y* IgG (antibody, V domains shown)
VH: B2 VH with T97K
VL: QSVLTQPPSVSGAPGQRVTISCSGSRSNIGSNTVKWYQQLPGTAPKLLIYYNDQRPSGVPDRFSGSKSGTSASLAITGLQAEDEADYYCQSYDRGTHPALLFGTGTKVTVL
With B9, in experiment [4], the “IFN gamma IC50” value is 0.03 nM and the “PHA assay IC50” value was 0.02 nM. The koff in experiment [5] came out at 6.98e-05 s⁻¹.

B10: 73-C1 (antibody, V domains shown)
VH: B2 VH with H99S, H102Y, N104Y
VL: B3 VL with Q90H, R94S, G95R
As to B10, the koff with human interleukin 12 [2] was found to be 0.00271 s⁻¹. This molecule also had a concentration for half-maximal inhibition (IC50) in the experiment with human interleukin 12 [3] greater than 10 nM.

B11: 136-16 (antibody, V domains shown)
VH: B2 VH
VL: B2 VL with T91S, G95R
With B11, in the experiment with human interleukin 12 [1], the “PHA assay IC50” value is 5 nM. In addition, the koff with human interleukin 12 [2] is 0.00061 s⁻¹. In the experiment with human interleukin 12 [3], this molecule gave an IC50 of 0.3 nM.

B12: SEQ ID NO: 523 (Y61, P at L50) (antibody, V domains shown)
VH: B2 VH with T97K
VL: B3 VL with G51P, F96T, T97H, G98P, S99A, R100L, V101L
Turning to B12, the off-rate constant (koff) in experiment [6] worked out at 0.00041 s⁻¹.

B13: SEQ ID NO: 526 (Y61, S at L53) (antibody, V domains shown)
VH: B2 VH with T97K
VL: B3 VL with Q54S, F96T, T97H, G98P, S99A, R100L, V101L
In experiment [6], B13 showed a koff of 0.000866 s⁻¹.

B14: SEQ ID NO: 518 (Y61, A at L50) (antibody, V domains shown)
VH: B2 VH with T97K
VL: B3 VL with G51A, F96T, T97H, G98P, S99A, R100L, V101L
B14 returned a koff in experiment [6] of 0.000372 s⁻¹.

B15: SEQ ID NO: 525 (Y61, F at L50) (antibody, V domains shown)
VH: B2 VH with T97K
VL: B3 VL with G51F, F96T, T97H, G98P, S99A, R100L, V101L
In experiment [6], B15 displayed a koff of 0.0348 s⁻¹.

B16: SEQ ID NO: 519 (Y61, V at L50) (antibody, V domains shown)
VH: B2 VH with T97K
VL: B3 VL with G51V, F96T, T97H, G98P, S99A, R100L, V101L
The molecule B16 gave a koff in experiment [6] of 0.000385 s⁻¹.

B17: SEQ ID NO: 521 (Y61, L at L50) (antibody, V domains shown)
VH: B2 VH with T97K
VL: B3 VL with G51L, F96T, T97H, G98P, S99A, R100L, V101L
Consider B17, for which, in experiment [6], the koff was 0.000616 s⁻¹.

B18: SEQ ID NO: 524 (Y61, W at L50) (antibody, V domains shown)
VH: B2 VH with T97K
VL: B3 VL with G51W, F96T, T97H, G98P, S99A, R100L, V101L
In experiment [6], B18 registered a koff of 0.000382 s⁻¹.

B19: SEQ ID NO: 520 (Y61, M at L50) (antibody, V domains shown)
VH: B2 VH with T97K
VL: B3 VL with G51M, F96T, T97H, G98P, S99A, R100L, V101L
B19: the koff in experiment [6] stood at 0.000953 s⁻¹.

B20: SEQ ID NO: 512 (Y61, K at L50) (antibody, V domains shown)
VH: B2 VH with T97K
VL: B3 VL with G51K, F96T, T97H, G98P, S99A, R100L, V101L
As to B20, the dissociation rate constant (koff) in experiment [6] is 0.00243 s⁻¹.

B21: SEQ ID NO: 531 (Y61, A at L53) (antibody, V domains shown)
VH: B2 VH with T97K
VL: B3 VL with Q54A, F96T, T97H, G98P, S99A, R100L, V101L
In experiment [6], B21 registered a koff of 0.000554 s⁻¹.

B22: SEQ ID NO: 513 (Y61, R at L50) (antibody, V domains shown)
VH: B2 VH with T97K
VL: B3 VL with G51R, F96T, T97H, G98P, S99A, R100L, V101L
In experiment [6], B22 displayed a dissociation rate constant (koff) of 0.000444 s⁻¹.

B23: SEQ ID NO: 532 (Y61, I at L53) (antibody, V domains shown)
VH: B2 VH with T97K
VL: B3 VL with Q54I, F96T, T97H, G98P, S99A, R100L, V101L
In turn, B23 displayed an off-rate constant (koff) in experiment [6] of 0.000855 s⁻¹.

B24: SEQ ID NO: 514 (Y61, N at L50) (antibody, V domains shown)
VH: B2 VH with T97K
VL: B3 VL with G51N, F96T, T97H, G98P, S99A, R100L, V101L
B24 registered a koff in experiment [6] of 0.000305 s⁻¹.

B25: SEQ ID NO: 533 (Y61, P at L53) (antibody, V domains shown)
VH: B2 VH with T97K
VL: B3 VL with Q54P, F96T, T97H, G98P, S99A, R100L, V101L
B25 displayed an off-rate (koff) in experiment [6] of 0.000974 s⁻¹.

B26: SEQ ID NO: 530 (Y61, T at L53) (antibody, V domains shown)
VH: B2 VH with T97K
VL: B3 VL with Q54T, F96T, T97H, G98P, S99A, R100L, V101L
In experiment [6], B26 registered a koff of 0.000834 s⁻¹.

B27: SEQ ID NO: 516 (Y61, T at L50) (antibody, V domains shown)
VH: B2 VH with T97K
VL: B3 VL with G51T, F96T, T97H, G98P, S99A, R100L, V101L
In experiment [6], B27 gave a koff of 0.000272 s⁻¹.

B28: SEQ ID NO: 528 (Y61, R at L53) (antibody, V domains shown)
VH: B2 VH with T97K
VL: B3 VL with Q54R, F96T, T97H, G98P, S99A, R100L, V101L
B28 came in with a koff in experiment [6] of 0.000614 s⁻¹.

B29: J695 (Y61-L94Y-L50Y IgG*) (antibody, V domains shown)
VH: B2 VH with Q6E, K84N, T97K
VL: QSVLTQPPSVSGAPGQRVTISCSGSRSNIGSNTVKWYQQLPGTAPKLLIYYNDQRPSGVPDRFSGSKSGTSASLAITGLQAEDEADYYCQSYDRYTHPALLFGTGTKVTVLG
notes: also called ABT-874
For the molecule B29, the koff in experiment [5] worked out at 5.14e-05 s⁻¹.

B30: SEQ ID NO: 527 (Y61, Y at L53) (antibody, V domains shown)
VH: B2 VH with T97K
VL: B3 VL with Q54Y, F96T, T97H, G98P, S99A, R100L, V101L
Consider B30, for which, in experiment [6], the koff was 0.000733 s⁻¹.

B31: SEQ ID NO: 522 (Y61, I at L50) (antibody, V domains shown)
VH: B2 VH with T97K
VL: B29 VL with Q1S, S2Y, A13T, S25G, Y51I, L79V, Y95G
As to B31, the koff in experiment [6] worked out at 0.0012 s⁻¹.

B32: SEQ ID NO: 515 (Y61, Q at L50) (antibody, V domains shown)
VH: B2 VH with T97K
VL: B29 VL with Q1S, S2Y, A13T, S25G, Y51Q, L79V, Y95G
In experiment [6], B32 gave an off-rate (koff) of 0.000348 s⁻¹.

The values above are taken from US20120219562A1 (AbbVie / Abbott, published 2012).
